Laboratory results from IntAct's records for PubMed 25036637.

B1: BAG family molecular chaperone regulator 4 (Homo sapiens), O95429 (parent)
chain: MSALRRSGYGPSDGPSYGRYYGPGGGDVPVHPPPPLYPLRPEPPQPPISWRVRGGGPAETTWLGEGGGGDGYYPSGGAWPEPGRAGGSHQEQPPYPSYNSNYWNSTARSRAPYPSTYPVRPELQGQSLNSYTNGAYGPTYPPGPGANTASYSGAYYAPGYTQTSYSTEVPSTYRSSGNSPTPVSRWIYPQQDCQTEAPPLRGQVPGYPPSQNPGMTLPHYPYGDGNRSVPQSGPTVRPQEDAWASPGAYGMGGRYPWPSSAPSAPPGNLYMTESTSPWPSSGSPQSPPSPPVQQPKDSSYPYSQSDQSMNRHNFPCSVHQYESSGTVNNDDSDLLDSQVQYSAEPQLYGNATSDHPNNQDQSSSLPEECVPSDESTPPSIKKIIHVLEKVQYLEQEVEEFVGKKTDKAYWLLEEMLTKELLELDSVETGGQDSVRQARKEAVCKIQAILEKLEKKGL
partner: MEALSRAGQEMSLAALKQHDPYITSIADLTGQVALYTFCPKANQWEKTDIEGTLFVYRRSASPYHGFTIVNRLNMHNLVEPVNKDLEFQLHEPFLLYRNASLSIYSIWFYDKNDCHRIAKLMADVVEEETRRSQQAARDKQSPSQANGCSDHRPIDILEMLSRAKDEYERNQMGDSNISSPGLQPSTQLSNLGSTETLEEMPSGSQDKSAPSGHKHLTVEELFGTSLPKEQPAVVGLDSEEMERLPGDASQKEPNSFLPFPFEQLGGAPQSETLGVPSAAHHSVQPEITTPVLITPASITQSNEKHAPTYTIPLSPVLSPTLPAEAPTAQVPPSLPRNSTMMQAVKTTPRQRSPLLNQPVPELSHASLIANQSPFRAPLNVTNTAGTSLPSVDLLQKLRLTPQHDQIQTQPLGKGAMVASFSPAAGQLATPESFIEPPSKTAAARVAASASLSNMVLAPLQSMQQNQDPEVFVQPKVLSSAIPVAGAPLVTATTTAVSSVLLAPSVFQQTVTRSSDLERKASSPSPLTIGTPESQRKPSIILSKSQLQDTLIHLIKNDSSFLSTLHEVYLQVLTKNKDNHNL

Variants of: B1
Conditions: with dcp1a_human DCP1A

| Variant | effect of a mutation on the interaction |
| --- | --- |
| D424A | disrupting interaction |
